We go through one protein from article PMC4246082, “A Coiled-coil Clamp Controls Both Conformation and Clustering of Stromal Interaction Molecule 1 (STIM1)*” (The Journal of Biological Chemistry, 2014).

The data set deals with the molecule itself. In words: SEC; Superdex S200 10/300 GL, 4 °C; 100-μl injections of 1.25 mg/ml and 0.25 mg/ml CC3ext; in-line MALS gave no molecular weight because of elution in the void volume. (SEC sorts molecules by how far they enter the pores of the column.)

B1: STIM1 CC3ext (residues 388-491) (domain or fragment, human, UniProt Q13586-1 388-491, looked up)
chain: NTLFGTFHVAHSSSLDDVDHKILTAKQALSEVTAALRERLHRWQQIEILCGFQIVNNPGIHSLVAALNIDPSWMGSTRPNPAHFIMTDDVDDMDEEIVSPLSMQ
notes: STIM1, human, residues 388-491 (CC3ext); Subcloned into pET-28a via NheI and XhoI; monomer 12.2 kDa on SDS-PAGE; also called recombinant CC3 fragment
In the case of B1, the binding result is on record as “binds”.
